Measured values reported in patent US20230348616A1.

Legend:
Experiment in all cases: flow cytometry on peptide-pulsed T2 cells, scFv 100 nM
7F = target: 7F
5A = target: 5A
4A = target: 4A
1F = target: 1F
6L = target: 6L
3A = target: 3A
2M = target: 2M

B1: NYA-2048 (scFv)
scFv: GQVQLVESGGGVVQPGRSLRLSCAASGFSIRSYDMHWVRQAPGKGLEWVATISYDGSQKYYADSVKGRFTISRDNSKNTLYLQMSSLRAEDTAVYHCARGSSGHYEAFDIWGQGTLVTVSSGGGGSGGGGSGGGGSQSVLTQPPSASGTPGQRVTISCSGSSSNIGNWYVSWYQQLPGTAPKLLIYDNNKRPSGVPDRFSGSKSGTSASLAISGLQSEDEADYYCGTWDSSLSAPWVFGGGTKLTVLGAAAGAGGDYKDDDDKGAAAHHHHHH
- standardized gMFI (7F): 1.46

B2: NYA-2045 (scFv)
scFv: GEVQLVESGGGLVQPGGSLRLSCAASGFSIRSYDIHWVRLAPGKGLEWVATISYDGSQKYYADSVKGRFTISRDESKNTLYLQMNSLRAEDTAVYHCARGSSGHYEAFDIWGQGTLVTVSSGGGGSGGGGSGGGGSQSVLTQPPSASGTPGQRVTISCSGSSSNIGNWYVSWYQQLPGTAPKLLIYDNNKRPSGVPDRFSGSKSGTSASLAISGLQSEDEADYYCGTWDSSLSAPWVFGGGTKLTVLGAAAGAGGDYKDDDDKGAAAHHHHHH
- standardized gMFI (5A): 0.94
- standardized gMFI (4A): 1.17

B3: NYA-1143 (scFv)
scFv: GEVQLVESGGGVVQPGRSLTPSCSASGFSIRSYDIHWVRLAPGKGLEWVATISYDGSQKYFADSVKGRFTIFRDESENMVYLQMSGLRVEDTAVYHCARGSSGHYEAFDIWGQGTMVTVSSGGGGSGGGGSGGGGSQSVLTQPPSVSAAPGQKVTISCSGSSSNIGNWYVSWYQQLPGTAPKLLIYDNNKRPSGIPDRFSGSKSGTSATLGITGLQTGDEADYYCGTWDSSLSAPWVFGGGTKVTVLGAAAGAGGDYKDDDDKGAAAHHHHHH
- standardized gMFI (1F): 1.77
- standardized gMFI (7F): 4.26
- standardized gMFI (4A): 5.91

B4: NYA-2035 (scFv)
scFv: GEVQLVESGGGVVQPGRSLTPSCSASGFSIRSYDIHWVRLAPGKGLEWVATISYDGSQKYFADSVKGRFTIFRDESENMVYLQMSGLRVEDTAVYHCARGSSGHYEAFDIWGQGTMVTVSSGGGGSGGGGSGGGGSQSVLTQPPSVSAAPGQKVTISCSGSSSNIGNWKVSWYQQLPGTAPKLLIYDNNKRPSGIPDRFSGSKSGTSATLGITGLQTGDEADYYCGTWDSSLSAPWVFGGGTKVTVLGAAAGAGGDYKDDDDKGAAAHHHHHH
- standardized gMFI (5A): 2.27
- standardized gMFI (4A): 2.16

B5: NYA-1163 (scFv)
scFv: GEVQLVESGGGVVQPGRSLTPSCSASGFSIRSYDIHWVRLAPGKGLEWVATISYDGSQKYFADSVKGRFTIFRDESENMVYLQMSGLRVEDTAVYHCARGSSGHYEAFDIWGQGTMVTVSSGGGGSGGGGSGGGGSQSVLTQPPSVSAAPGQKVTISCSGSSSNIGNNYVSWYQQLPGTAPKLLIYDNNKRPSGIPDRFSGSKSGTSATLGITGLQTGDEADYYCGTWDSSLSAPWVFGGGTKVTVLGAAAGAGGDYKDDDDKGAAAHHHHHH
- standardized gMFI (6L): 1.74
- standardized gMFI (3A): 1.7
- standardized gMFI (2M): 1.85
- standardized gMFI (7F): 1.11

B6: NYA-2023 (scFv)
scFv: GEVQLVESGGGVVQPGRSLTPSCSASGFSIRSYDIHWVRQAPGKGLEWVATISYDGSQKYFADSVKGRFTIFRDESENMVYLQMSGLRVEDTAVYHCARGSSGHYEAFDIWGQGTMVTVSSGGGGSGGGGSGGGGSQSVLTQPPSVSAAPGQKVTISCSGSSSNIGNWYVSWYQQLPGTAPKLLIYDNNKRPSGIPDRFSGSKSGTSATLGITGLQTGDEADYYCGTWDSSLSAPWVFGGGTKVTVLGAAAGAGGDYKDDDDKGAAAHHHHHH
- standardized gMFI (5A): 1.21

B7: NYA-2143 (scFv)
scFv: GEVQLVESGGGVVQPGRSLTPSCSASGFSIRSYDIHWVRLAPGKGLEWVATISYDGSQKYFADSVKGRFTIFRDESENMVYLQMSGLRVEDTAVYHCARGSSGHYEAFDIWGQGTMVTVSSGGGGSGGGGSGGGGSQSVLTQPPSVSAAPGQKVTISCSGSSSNIGNWYVSWYQRLPGTAPKLLIYDNNKRPSGIPDRFSGSKSGTSATLGITGLQTGDEADYYCGTWDSSLSAPWVFGGGTKVTVLGAAAGAGGDYKDDDDKGAAAHHHHHH
- standardized gMFI (5A): 4.3
- standardized gMFI (7F): 5.26

B8: NYA-1154 (scFv)
scFv: GEVQLVESGGGVVQPGRSLTPSCSASGFSIRSYDMHWVRQAPGKGLEWVATISYDGSQKYFADSVKGRFTIFRDESENMVYLQMSGLRVEDTAVYHCARGSSNHYEAFDIWGQGTMVTVSSGGGGSGGGGSGGGGSQSVLTQPPSVSAAPGQKVTISCSGSSSNIGNNYVSWYQRLPGTAPKLLIYDNNKRPSGIPDRFSGSKSGTSATLGITGLQTGDEADYYCGAWDSSLSAPWVFGGGTKVTVLGAAAGAGGDYKDDDDKGAAAHHHHHH
- standardized gMFI (5A): 1.12
- standardized gMFI (1F): 3.98

B9: NYA-2047 (scFv)
scFv: GQVQLVESGGGVVQPGRSLRLSCAASGFSIRSYDMHWVRQAPGKGLEWVATISYDGSQKYYADSVKGRFTISRDNSKNTLYLQMSSLRAEDTAVYHCARGSSGHYEAFDIWGQGTLVTVSSGGGGSGGGGSGGGGSQSVLTQPPSVSAAPGQKVTISCSGSSSNIGNWYVSWYQQLPGTAPKLLIYDNNKRPSGIPDRFSGSKSGTSATLGITGLQTGDEADYYCGTWDSSLSAPWVFGGGTKVTVLGAAAGAGGDYKDDDDKGAAAHHHHHH
- standardized gMFI (5A): 1.03
- standardized gMFI (7F): 3.11

B10: NYA-2044 (scFv)
scFv: GEVQLVESGGGLVQPGGSLRLSCAASGFSIRSYDIHWVRLAPGKGLEWVATISYDGSQKYYADSVKGRFTISRDESKNTLYLQMNSLRAEDTAVYHCARGSSGHYEAFDIWGQGTLVTVSSGGGGSGGGGSGGGGSQSVLTQPPSVSAAPGQKVTISCSGSSSNIGNWYVSWYQQLPGTAPKLLIYDNNKRPSGIPDRFSGSKSGTSATLGITGLQTGDEADYYCGTWDSSLSAPWVFGGGTKVTVLGAAAGAGGDYKDDDDKGAAAHHHHHH
- standardized gMFI (5A): 2.2
